The text below walks through data of the DeepSol protein solubility set.

A short description of this data set: soluble on expression in E. coli; label from the status in PepcDB or PDB records.
As for “MNLPEVSEKLIEQLNHGSTKAFDKIYHTYYLYLCAIAVYYVHDKRVAGEIVNDVFVSFWQNRHHITYPALPYLRRAIQNASISYLRSSAFNERIMTEQMEEIWAFLENHILSSDNPLQALESSEMNEIILRKVEELPAKCRAVFKASLYEGKSYSEIAEEQNINVATVRVQMKIALTKLRESLGTPYMIAILMFL”, the “soluble on expression in E. coli” value was “not soluble”.

On to “MNLRNGWNIEFQKNIHMYCHRLIATKGDKHYEVPCEDTPAGFVGIWLYGLELDEMTLSDLQAGLVEWAESSGCTYRIYNTRGVYLTNEPHVQADA”, for which the “soluble on expression in E. coli” value is reported as “not soluble”.

As to “MNLSLHYNLDNRNAMKPHTLVKRSSSQVTDQAVEVIHERIQQGFYPVGSALPSQRELSAELGISRASLREALTRLAALGLLNIMAGKGAYVTAIESQPVEQWNIQFKISLKDFYQLRYILEGFSALLACEYISENDLVQLNTHFEQLESAIQQHNWQEAAENDFAFHRHIIDLSHNQSIIQSLKKQTEWMKQSQILPFVQPNLAYKTIQEHEQILQALIKRDGLMAEKAMRQHIIGAAQRAGVYFSSHS”, the “soluble on expression in E. coli” value is “not soluble”.

Regarding “MNLVETAQAIKTGKVSLGIELGSTRIKAVLITDDFNTIASGSYVWENQFVDGTWTYALEDVWTGIQQSYTQLAADVRSKYHMSLKHINAIGISAMMHGYLAFDQQAKLLVPFRTWRNNITGQAADELTELFDFNIPQRWSIAHLYQAILNNEAHVKQVDFITTLAGYVTWKLSGEKVLGIGDASGVFPIDETTDTYNQTMLTKFSQLDKVKPYSWDIRHILPRVLPAGAIAGKLTAAGASLLDQSGTLDAGSVIAPPEGDAGTGMVGTNSVRKRTGNISVGTSAFSMNVLDKPLSKVYRDIDIVMTPDGSPVAMVHVNNCSSDINAWATIFHEFAARLGMELKPDRLYETLFLESTRADADAGGLANYSYQSGENITKIQAGRPLFVRTPNSKFSLPNFMLTQLYAAFAPLQLGMDILVNEEHVQTDVMIAQGGLFRTPVIGQQVLANALNIPITVMSTAGEGGPWGMAVLANFACRQTAMNLEDFLDQEVFKEPESMTLSPEPERVAGYREFIQRYQAGLPVEAAAGQAIKYLEHHHHHH”, the “soluble on expression in E. coli” value is listed as “soluble”.

On to “MNMKPESKEAPINIRAKASQRDLIDMAANLVAKSRTDFMLDAACREAQDILLDQRLFILDDEQYDAFLAALDAPITAERQAKINALMNRKSPWE”, for which the “soluble on expression in E. coli” value was “soluble”.

Regarding “MNNDVTRILKDARDQGRLTALDYAELIFDNFMELHGDRQFADDKSIIGGLGYLAGRPVTIVGIQKGKNLQDNLDRHFGQPHPEGYRKALRLMKQAEKFGRPVITFINTAGAYPGVGAEERGQGEAIARNLLEMSDLKVPIIAIIIGEGGSGGALALAVADKVWMLEHTVYSILSPEGFASILWKDGTRTTEAAQLMKMTAGELYHMEVVDKVIPEHGYFSSEIVDMIKTSLISELEVLSQLSLEDLLEQRYQRFRKY”, the “soluble on expression in E. coli” value is recorded as “not soluble”.

With “MNNETSGSRDMILKHFDSTQNNQNSVKLEHESSDNNESSGSQNFVFNFLMSQLQNMGPVEIKQEVEAKMLDDIEDEYTDNNYNEGYSKMDTDGDLEWEEEFKKLNKDPSKMDKREQERHRQMAKNREYARKCVQKKKDQRKHAEIRSNQIKKRIQLLKNKTAIKEKNANFAVDLRKMMSEIGVERLKLEYENEKMELNKKFAEMFAQDETVNLNFHRLASAREEFEKAAEDLRLKNGVIGTLGSRKIRAKQQMEWRQHLYQISAHEHEHHRETKLAELADEYVKQTVPKAAPLVTSIPKDMLDQLIKNNKTLDLEELCRFVADNLCLLQNDNDDKESVVK”, the “soluble on expression in E. coli” value is reported as “not soluble”.

On to “MNNGEGEVMDLRDIDLNLLVVFNQLLLDRSVSTAGEKLGLTQPAVSNSLKRLRTALNDDLFLRTSKGMEPTPYALHLAEPVIYALNTLQTALTTRDSFDPFASTRTFNLAMTDIGEMYFMPPLMEALAQRAPHIQISTLRPNAGNLSEDMESGAVDLALGLLPELQTGFFQRRLFRHRYVCMFRKDHPSAKSPMSLKQFSELEHVGVVALNTGHGEVDGLLERAGIKRRMRLVVPHFIAIGPILHSTDLIATVPERFAVRCEVPFGLTTSPHPAKLPDIAINLFWHAKYNRDPGNMWLRQLFVELFSEAHHHHHH”, for which the “soluble on expression in E. coli” value is “soluble”.

“MNNIDQLYTETKSMLSHIQNTPESDELLKQIEDFVATRSELIQEISLPLSEEERKQMKLILTWDQLIVKEMERLKQSIATELQQMKRKRVMHTTYLNPYNNITIDGTYYDKRKLEHHHHHH”: the “soluble on expression in E. coli” value is reported as “soluble”.

Consider “MNNLISQDKRISSNPVAKIIYGDPVTFLPHLPRKSVVHCSKIWSCRKRITVEYLQHIVEQKNGKERVPILWHFLQKEAELRLVKFLPEILALQRDLVKQFQNVQQVEYSSIRGFLSKHSSDGLRQLLHNRITVFLSTWNKLRRSLETNGEINLPKDYCSTDLDLDTEFEILLPRRRGLGLCATALVSYLIRLHNEIVYAVEKLSKENNSYSVDAAEVTELHVISYEVERDLTPLILSNCQYQVEEGRETVQEFDLEKIQRQIVSRFLQGKPRLSLKGIPTLVYRHDWNYEHLFMDIKNKMAQDSLPSSVISAISGQLQSYSDACEVLSVVEVTLGFLSTAGGDPNMQLNVYTQDILQMGDQTIHVLKALNRCQLKHTIALWQFLSAHKSEQLLRLHKEPFGEISSRYKADLSPENAKLLSTFLNQTGLDAFLLELHEMIILKLKNPQTQTEERFRPQWSLRDTLVSYMQTKESEILPEMASQFPEEILLASCVSVWKTAAVLKWNREMR”, for which the “soluble on expression in E. coli” value is reported as “not soluble”.

For the sequence “MNNLLRCHQVCKTYQEGELQTQVLKGVSFELKRGELVSIIGSSGSGKSTLLHILGALDDASEGQVEFLGQSLHQLSSNKQAKIRNQHLGFVYQFHHLLADFSALENVAMPLLIGGMNVAKAKAKAQSLLERVGLGHRVAHRPSELSGGERQRVAIARALVNKPDLVLADEPTGNLDHKTALSIYDLMRELNRESGTAFLVVTHDGELAAKMDRHMHMKDGLLTDITGA”, the “soluble on expression in E. coli” value is listed as “not soluble”.

As for “MNNPKAISKQTLLRLPSYLSYLKSLPKQDGEYVSATMIASALGLNDVQVRKDLACVSKKGRPKLGYVAEELIRDIESFLGYDSLNDAIIVGAGRLGGALLSYEGFKEYGLNIVAAFDIDESKIGTEICGRKIFPLDKMKELCRRMKIRIGIITVPADSAQKVCDMLVDSGIYAIWNFAPVHLKVPDNILVQQENMAASLAVLSAHLAEAIKNNGIGKGDEENDENSE”, the “soluble on expression in E. coli” value is on record as “not soluble”.

“MNNPVVLDSKTELNEQTAQDVRLQLRQDADVQRIYNAVDIKDQLELIELGKEPSMEISRFADQILHTMSLSKIEDSGELLKQLGKIMDRFDSKDFAEEKSGFFSRMFKKADKMIEQIFSKYQTMGREIDKVYVEITKYQDEMKKSIGTLDGLYEQNLKYYLDLEKYVVAGEMLLERLNTELVPMYEERVRNNDQLAGIELESLKNSVEILEQRIDDLEKARMVALLTAPQIRMIQRGNNKLIGKINTAFITTIPIFKNGIIQAVNAKRQKLVADSMAELDRRTNELLKKNAQNIATQSVEVARLSGSSSIKMETLEETWNIISRGMQETQQIEEQNKREREESRKRMATLTENIKKELQG”: the “soluble on expression in E. coli” value is given as “not soluble”.

Take “MNNVLILLDNPDDWKPYCETKSILTVSDYLKNKPVEKDRKLVINLSNDYSYNSEGYYCSLLAQTRGQRVIPDVDIINKLETGTGIRMDRSLQALCYQWIQKNGIKSDIWYLNIYFGKCREKGLERVARFIFENYPCPLLRVALNTHPKNQIESIQFLPLNRLDDEEQDFFANTLDNFNKKIWRAPKSAKAPRYSLAVLIDPKEKFPPSNKGALHKLSEVAKKMNIHVEMITEDDAMRLLEFDALFIRTTTSLNHYTFHLSQLAAQNGMVVIDDPLSIIRCTNKVYLKELFEKERIPAPKSTLIFQSNENSFEQISEQVGAPFILKIPDGSYSIGMKKVSNEEELKTSLELLFEKSAILLAQAFTPTEFDWRVGLLNGVPLYACKYYMAKGHWQIYCHYDSGRSRCGLVDTIPIYQVPRVVLDTAIKAANLIGKGLYGVDLKMVDDKAYVIEINDNPSIDHELEDAIIGDEMYYRLLNHFEQALEMKHY”: the “soluble on expression in E. coli” value is listed as “not soluble”.

For the sequence “MNPAPERTVMQHVRPLPYEADFTGFLSNTVAPRWMEALRIQRMRTCFPHFDSGAPQHLCIITETTVRYRKPVRYSDAIVGKAWLQSARYSRWIIAFSFAFEFSGLPAFEGRQAGTFIDPLEHHHHHH”, the “soluble on expression in E. coli” value was “not soluble”.

On to “MNPDHKEIIMNHIGLFALTAAALLAGCSSNTQQDNYREASFELCNTEVNIYSVSDDGQVRIVCADGAKFALKTEKTLDIMRDINVDYCDGEGLGKFTESNKYYMFKCKSGTMISVSK”, for which the “soluble on expression in E. coli” value was “not soluble”.

For the sequence “MNPDNLAKLIDELSAMFHPTERDRPHGRWVEAPKSAPPSKRRRSKTAYQLKITLNGIRPPIWRRVLVPGHATFHELHLIIQEAMGWEQAHLYEFDFGSVLIGIPDGWDSFQLEKELMDARRIPLQQWLTEEKQKFLYIYDFGDYWRHTVTVEKIETLPKPLERAACLKGKRACPPEDCGGVYGYLELLEAAAQKDSLADPELRELVDWMYDMKGEDFDPDAFDVEEANERLAYIRL”, the “soluble on expression in E. coli” value is reported as “not soluble”.

As for “MNPISRVAIIGECMVELKKHDGVLQQGFGGDTLNTAVYLSRLTKQHGVETSYVTGLGHDPFSREMLTAWREEGINTDMVYLSEDKLPGIYAIETAEDGERSFFYWRNDAAAKYWLRERALLSLVKDLCQHQMIYLSGISLAIISDDCRQMLIELLTMCRKEGVKIAFDNNFRPKLWPNIEQARDFYSKILSVTDMAFLTFDDEVMLWGDKHE”, the “soluble on expression in E. coli” value was “not soluble”.

On to “MNPLEAVEHQGGLQLSTPPYEIAVDQKCYWRNQPIGLTLQGHNESIWFKGFVIQPFKWNNDQLGERFGQLVRLDDNGSWQQQCFRYQVSATHSHDEKKKHIKMWWKVDDEVDTVQFVATVVKHQTQFWVKSVRSRPLPPCRLNRDGFPNYQAPVPQIPPQVKQFKMETFKVFDSIVRRRPFNH”, for which the “soluble on expression in E. coli” value is listed as “not soluble”.

Regarding “MNPLKAGDIAPKFSLPDQDGEQVNLTDFQGQRVLVYFYPKAMTPGCTVQACGLRDNMDELKKAGVDVLGISTDKPEKLSRFAEKELLNFTLLSDENHQVCEQFGVWGEKSFMGKTYDGIHRISFLIDADGKIEHVFNDFKTSNHHDVVLNWLKENA”, the “soluble on expression in E. coli” value is “not soluble”.

In the case of “MNQAWQSQLPLSHIKNIVPVSGGDVNDAFRIETDQEDYFLLVQRKRKSTFFDAEIAGLNLFEKVGITAPRVIDSGEIEDDAYLLLTYLDEGVSGSQEALGQLVARMHSEQQADNQFGFDLPYEGGDISFDNSWTNSWITLFVEKRLDKLKDRLVQQGLWGDADVTQYQAVRRVIVNELESHNSKPSLLHGDLWGGNYMFLTDGSPALFDPAPLYGDREFDIGITSVFGGFTQAFYDAYHKHYPLSEGADVRLEFYRLYLLMVHLVKFGEMYAGSVDRSMQKILNQLEHHHHHH”, the “soluble on expression in E. coli” value is “soluble”.

As for “MNQIDTGLVKRLIREQFPEWAHLEVKPVKFSGHDNRTFQLGDKMSVRLPSDAAYTPQVEKENKWLPILSKELSLPISTPIAKGNPSEAYPWPWSINKWIEGETVTKQNVRDLSEFAAHLGSFLVELQSIDASKGPIAGAHNFYRGGLISVYDEEARDAIENNKDVFDETVLKHLWDLALQSTWRRKPVWIHGDVAPGNLLVKDGKLCAVIDFGILGVGDPACDAAMSWTFFDKSSRKIFKEVLQIDEETWNRARGWALWKALITYDANKISNKIVAEESYRVIQVIVNDYGR”, the “soluble on expression in E. coli” value is on record as “not soluble”.

In the case of “MNQTKLNQRLKQQQLFDIYGELLTKRQACYFNEYINLDLSMQEIADKYQVKKSSIHQHIKTCNLIFNRFEAKLQLFKKQQLRLKLYEKITDPQLREQLIKLR”, the “soluble on expression in E. coli” value is listed as “soluble”.

As for “MNQYPDFDQKLYDDLRRGKEYAFAAVFDRYHRLLYTIAYRFLKSEEEAEDAVQYLFMKLWEQRETFSFESGIRSLLFTILKNYILNELRHRNLVFEKLYEMAQQVNDEDEDAFLTRFEHGELRKSLRVAIDKLPPQKQKICLLKIEYGLSNQEIADRMGITVPTVKSHYTQAIKALRNAIESLIMWFPVIWIYLID”, the “soluble on expression in E. coli” value is recorded as “not soluble”.
